# Measured values as given in patent US20240425885.
# Columns and labels:
# Experiment in all cases: cleavage_in_vitro
# [1] = tested on: T1, OMNI-134 (metagenomic, unknown); conditions: TXTL; PAM NRAANYNN
# T1 sequence: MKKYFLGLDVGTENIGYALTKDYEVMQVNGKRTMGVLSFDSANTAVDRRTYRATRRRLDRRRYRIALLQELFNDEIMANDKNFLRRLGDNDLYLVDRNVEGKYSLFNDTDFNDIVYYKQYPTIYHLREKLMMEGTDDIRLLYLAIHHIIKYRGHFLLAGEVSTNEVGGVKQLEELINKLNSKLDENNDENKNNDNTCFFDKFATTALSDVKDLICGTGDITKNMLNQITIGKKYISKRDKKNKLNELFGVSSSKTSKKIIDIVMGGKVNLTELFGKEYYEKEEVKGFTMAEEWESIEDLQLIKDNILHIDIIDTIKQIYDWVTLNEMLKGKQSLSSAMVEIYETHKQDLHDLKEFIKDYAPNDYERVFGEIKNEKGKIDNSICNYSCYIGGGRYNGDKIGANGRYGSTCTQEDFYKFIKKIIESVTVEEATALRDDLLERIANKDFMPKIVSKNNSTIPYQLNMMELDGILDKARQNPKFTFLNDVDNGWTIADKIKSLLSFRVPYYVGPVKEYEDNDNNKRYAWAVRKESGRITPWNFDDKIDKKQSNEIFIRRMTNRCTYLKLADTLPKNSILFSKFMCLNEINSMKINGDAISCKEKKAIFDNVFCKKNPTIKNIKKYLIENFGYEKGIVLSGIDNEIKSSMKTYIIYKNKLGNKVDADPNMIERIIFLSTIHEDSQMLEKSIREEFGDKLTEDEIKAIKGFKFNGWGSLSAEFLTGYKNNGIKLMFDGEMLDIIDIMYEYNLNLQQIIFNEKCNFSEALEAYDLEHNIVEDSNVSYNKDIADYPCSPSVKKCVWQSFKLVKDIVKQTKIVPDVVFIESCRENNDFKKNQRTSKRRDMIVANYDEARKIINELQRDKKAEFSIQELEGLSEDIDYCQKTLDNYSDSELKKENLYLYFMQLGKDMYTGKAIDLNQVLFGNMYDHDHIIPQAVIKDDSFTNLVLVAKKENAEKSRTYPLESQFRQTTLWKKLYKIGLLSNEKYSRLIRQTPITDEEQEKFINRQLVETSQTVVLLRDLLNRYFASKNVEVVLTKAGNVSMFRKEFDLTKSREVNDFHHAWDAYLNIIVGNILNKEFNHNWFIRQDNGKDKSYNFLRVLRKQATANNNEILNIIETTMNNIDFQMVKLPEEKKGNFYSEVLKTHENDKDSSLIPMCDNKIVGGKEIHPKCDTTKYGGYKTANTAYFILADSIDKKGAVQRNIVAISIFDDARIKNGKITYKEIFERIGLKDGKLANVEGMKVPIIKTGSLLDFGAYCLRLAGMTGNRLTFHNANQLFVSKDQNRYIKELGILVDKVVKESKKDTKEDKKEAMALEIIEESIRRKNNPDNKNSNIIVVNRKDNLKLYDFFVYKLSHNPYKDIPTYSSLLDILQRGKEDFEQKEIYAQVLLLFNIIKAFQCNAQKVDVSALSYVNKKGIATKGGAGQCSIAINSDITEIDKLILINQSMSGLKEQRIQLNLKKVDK
# [2] = tested on: T2, OMNI-107 (metagenomic, unknown); conditions: TXTL; PAM NNNAANNN
# T2 sequence: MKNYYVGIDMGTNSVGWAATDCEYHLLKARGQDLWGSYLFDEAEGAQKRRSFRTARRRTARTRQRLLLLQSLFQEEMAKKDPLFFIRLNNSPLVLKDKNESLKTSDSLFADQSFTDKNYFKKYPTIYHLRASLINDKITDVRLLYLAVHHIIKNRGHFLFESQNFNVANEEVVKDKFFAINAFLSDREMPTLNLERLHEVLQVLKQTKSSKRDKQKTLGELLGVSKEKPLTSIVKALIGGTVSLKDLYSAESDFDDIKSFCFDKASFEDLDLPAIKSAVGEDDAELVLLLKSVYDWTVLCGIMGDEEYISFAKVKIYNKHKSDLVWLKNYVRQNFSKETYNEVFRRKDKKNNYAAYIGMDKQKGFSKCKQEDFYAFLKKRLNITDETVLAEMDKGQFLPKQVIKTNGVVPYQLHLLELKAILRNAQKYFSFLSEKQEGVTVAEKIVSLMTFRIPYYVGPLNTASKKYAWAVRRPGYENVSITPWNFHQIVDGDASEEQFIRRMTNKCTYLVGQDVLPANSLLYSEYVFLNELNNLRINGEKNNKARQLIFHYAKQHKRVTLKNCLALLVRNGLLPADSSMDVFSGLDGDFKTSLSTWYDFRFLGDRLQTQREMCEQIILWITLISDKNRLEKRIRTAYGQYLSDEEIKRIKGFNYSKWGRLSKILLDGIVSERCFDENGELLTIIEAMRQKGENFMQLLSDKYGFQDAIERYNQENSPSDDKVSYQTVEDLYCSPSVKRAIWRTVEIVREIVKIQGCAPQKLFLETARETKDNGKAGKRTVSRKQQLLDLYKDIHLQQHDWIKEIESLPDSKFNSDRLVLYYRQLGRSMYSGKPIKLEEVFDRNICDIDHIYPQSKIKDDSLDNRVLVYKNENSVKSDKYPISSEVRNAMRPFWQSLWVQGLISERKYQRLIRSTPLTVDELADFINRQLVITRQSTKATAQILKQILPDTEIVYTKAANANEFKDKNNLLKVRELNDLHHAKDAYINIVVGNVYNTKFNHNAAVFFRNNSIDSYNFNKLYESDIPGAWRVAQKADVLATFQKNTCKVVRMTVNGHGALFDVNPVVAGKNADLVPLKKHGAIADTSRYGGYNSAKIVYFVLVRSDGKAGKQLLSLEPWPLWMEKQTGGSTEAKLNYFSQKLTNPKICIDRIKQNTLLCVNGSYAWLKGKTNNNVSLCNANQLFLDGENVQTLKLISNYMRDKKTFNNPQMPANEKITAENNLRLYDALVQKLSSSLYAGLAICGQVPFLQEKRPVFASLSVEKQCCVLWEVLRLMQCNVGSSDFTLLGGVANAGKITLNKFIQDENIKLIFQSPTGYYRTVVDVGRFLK
# [3] = tested on: T3, OMNI-97 (metagenomic, unknown); conditions: TXTL; PAM NNRCCANN
# T3 sequence: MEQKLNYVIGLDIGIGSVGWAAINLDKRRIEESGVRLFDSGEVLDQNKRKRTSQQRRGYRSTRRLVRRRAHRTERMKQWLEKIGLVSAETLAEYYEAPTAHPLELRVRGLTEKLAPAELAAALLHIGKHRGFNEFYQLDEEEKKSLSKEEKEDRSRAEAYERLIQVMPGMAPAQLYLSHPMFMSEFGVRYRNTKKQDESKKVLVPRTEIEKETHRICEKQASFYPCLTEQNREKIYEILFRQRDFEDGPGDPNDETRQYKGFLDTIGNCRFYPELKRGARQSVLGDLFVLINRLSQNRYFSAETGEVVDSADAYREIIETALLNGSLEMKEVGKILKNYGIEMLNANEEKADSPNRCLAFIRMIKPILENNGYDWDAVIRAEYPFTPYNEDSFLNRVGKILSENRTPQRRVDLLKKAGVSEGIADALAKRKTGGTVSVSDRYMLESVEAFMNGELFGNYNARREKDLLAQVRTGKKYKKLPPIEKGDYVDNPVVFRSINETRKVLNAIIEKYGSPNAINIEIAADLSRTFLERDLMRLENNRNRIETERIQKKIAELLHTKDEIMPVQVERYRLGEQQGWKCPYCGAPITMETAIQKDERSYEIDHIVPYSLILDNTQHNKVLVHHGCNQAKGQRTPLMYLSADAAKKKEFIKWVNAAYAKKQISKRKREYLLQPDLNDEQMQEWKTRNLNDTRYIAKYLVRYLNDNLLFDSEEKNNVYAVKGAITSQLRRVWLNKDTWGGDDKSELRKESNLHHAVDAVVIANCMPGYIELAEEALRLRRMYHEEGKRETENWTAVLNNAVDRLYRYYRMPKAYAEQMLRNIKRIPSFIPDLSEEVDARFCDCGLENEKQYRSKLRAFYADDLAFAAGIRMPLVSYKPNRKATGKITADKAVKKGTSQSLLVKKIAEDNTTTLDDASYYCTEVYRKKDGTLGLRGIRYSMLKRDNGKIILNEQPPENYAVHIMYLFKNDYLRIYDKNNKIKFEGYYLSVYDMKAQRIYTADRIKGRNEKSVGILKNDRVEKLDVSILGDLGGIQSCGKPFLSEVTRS
sequence,measurement,setting,value
GGAAGAGCAGAGCCUUGGUCUCGUUUGAGAGUAUUGUUGAAAAACAAUCGUUCAAAUAAGGUUUUACCUUAAGCAUCCUAUUGGAUCAGUCGACUAAUCAGAGUCGACUAUUUUUU / GGAAGAGCAGAGCCTTGGTCTCNNNNNNNN / NNNNNNNNGAGACCAAGGCTCTGCTCTTCC [T2 sgRNA 19 V1 ; T2 protospacer + 8N PAM library (pbPOS T2)],activity (1-depletion score),[1],0.98
GGAAGAGCAGAGCCUUGGUCUCGUUUGAGUAUGGUGUUAGAAAUAACACCAUUAGUUCAAAUAAGAUUUUUUCAAAUCGCCGAUUUUUCGGUAGUACACGAUGUGUACAUUGGAUCUGUUGCAAGACAGGUCCUUUUUUU / GGAAGAGCAGAGCCTTGGTCTCNNNNNNNN / NNNNNNNNGAGACCAAGGCTCTGCTCTTCC [T2 sgRNA 16 V1 ; T2 protospacer + 8N PAM library (pbPOS T2)],activity (1-depletion score),[2],0.7
GGAAGAGCAGAGCCUUGGUCUCGUUUGAGUAUGGUGUUAGAAAUAACACCAUUAGUUCAAAUAAGAUUUUUUCAAAUCGCCGAUUUUUCGGUAGUACACGAUGUGUACAUUUUUU / GGAAGAGCAGAGCCTTGGTCTCNNNNNNNN / NNNNNNNNGAGACCAAGGCTCTGCTCTTCC [T2 sgRNA 16 V3 ; T2 protospacer + 8N PAM library (pbPOS T2)],activity (1-depletion score),[2],0.83
GGAAGAGCAGAGCCUUGGUCUCGUUAUUUUGAAUACUAGAAAGUGUAUUUAAAGUAAAUAAAAAGUUAAAUUUAAAGAUAAAAGUAAAUAAUUAGUAAAUUAACUUCUGAUAAUGUGAAAUUCAUUUGUUUUUU / GGAAGAGCAGAGCCTTGGTCTCNNNNNNNN / NNNNNNNNGAGACCAAGGCTCTGCTCTTCC [T2 sgRNA 39 V1 ; T2 protospacer + 8N PAM library (pbPOS T2)],activity (1-depletion score),[1],0.99
GGAAGAGCAGAGCCUUGGUCUCGUUUUGGGCCUCUGAUGGGAAACCAUCAGAGACCUGAGAUAAGGCUUUAUGCCGUAGGGUAUGGCGGUAACCCGGAGUAUUCCGAAUCCGCUUUUUUU / GGAAGAGCAGAGCCTTGGTCTCNNNNNNNN / NNNNNNNNGAGACCAAGGCTCTGCTCTTCC [T2 sgRNA 8 V3 ; T2 protospacer + 8N PAM library (pbPOS T2)],activity (1-depletion score),[3],0.97
GGAAGAGCAGAGCCUUGGUCUCGUUUGAGAGUAUUGUUAUUGAAAAAUAACAAUCGUUCAAAUAAGGUUUUACCUUAAGCAUCCUAUUGGAUCAGUCGACUAACCAGAGUCGACUAUUUUUU / GGAAGAGCAGAGCCTTGGTCTCNNNNNNNN / NNNNNNNNGAGACCAAGGCTCTGCTCTTCC [T2 sgRNA 34 V1 ; T2 protospacer + 8N PAM library (pbPOS T2)],activity (1-depletion score),[1],0.94
GGAAGAGCAGAGCCUUGGUCUCGUUUUGGGCCUCUGAUGGGAAACCAUCAGAGACCUGAGAUAAGGCUUUAUGCCGUAGGGUAUGGCGGUAACCCGGAGUAUUCCGAAUCCGCUUUUUCUUUGCCUGUAAAUACAGUAUAACAUAUUAUUUCGUCCUUUUUU / GGAAGAGCAGAGCCTTGGTCTCNNNNNNNN / NNNNNNNNGAGACCAAGGCTCTGCTCTTCC [T2 sgRNA 8 V1 ; T2 protospacer + 8N PAM library (pbPOS T2)],activity (1-depletion score),[3],0.93
